# Patent publication US20250114467A1 (SHANGHAI FUDAN ZHANGJIANG BIO PHARMACEUTICAL, published 2025)
# T1: human DLL1 (purchased from Acro, DL1-H52H8) (human, UniProt O00548 18-540)
# T1 construct: Bought; also called hDLL1
# T1 sequence (looked up): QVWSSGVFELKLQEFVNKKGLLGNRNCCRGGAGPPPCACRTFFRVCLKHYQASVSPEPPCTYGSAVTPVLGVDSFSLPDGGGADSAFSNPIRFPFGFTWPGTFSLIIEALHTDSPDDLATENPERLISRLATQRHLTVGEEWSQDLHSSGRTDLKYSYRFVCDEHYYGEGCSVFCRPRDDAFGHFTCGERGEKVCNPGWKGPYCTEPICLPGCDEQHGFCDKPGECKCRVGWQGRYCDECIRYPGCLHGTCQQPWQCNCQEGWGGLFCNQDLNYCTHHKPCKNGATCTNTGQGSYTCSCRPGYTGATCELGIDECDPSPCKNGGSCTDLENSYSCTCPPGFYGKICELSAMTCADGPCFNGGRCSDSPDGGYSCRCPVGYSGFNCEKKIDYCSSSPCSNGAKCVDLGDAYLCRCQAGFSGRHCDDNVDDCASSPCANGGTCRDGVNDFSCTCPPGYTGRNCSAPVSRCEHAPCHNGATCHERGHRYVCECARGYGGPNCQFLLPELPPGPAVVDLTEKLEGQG
# T2: human DLL3, His tag (acrobiosystems, DL3-H52H4) (human, UniProt Q9NYJ7 27-492)
# T2 construct: Bought; also called human DLL3 protein; free DLL3; not shown: His tag
# T2 sequence (looked up): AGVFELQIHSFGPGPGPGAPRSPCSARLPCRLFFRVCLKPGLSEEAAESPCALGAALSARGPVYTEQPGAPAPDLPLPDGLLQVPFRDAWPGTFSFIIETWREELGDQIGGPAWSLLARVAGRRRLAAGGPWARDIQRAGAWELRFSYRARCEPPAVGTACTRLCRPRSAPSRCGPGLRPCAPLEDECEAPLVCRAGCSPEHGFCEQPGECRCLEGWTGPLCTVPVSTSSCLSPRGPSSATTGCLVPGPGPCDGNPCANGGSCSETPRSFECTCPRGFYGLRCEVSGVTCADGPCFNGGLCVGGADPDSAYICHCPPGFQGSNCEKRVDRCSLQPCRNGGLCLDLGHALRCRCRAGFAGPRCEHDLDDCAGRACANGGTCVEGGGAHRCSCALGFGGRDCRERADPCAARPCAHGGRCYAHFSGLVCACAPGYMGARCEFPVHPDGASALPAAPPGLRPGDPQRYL
# How the values were obtained:
# [1] = target: T1, human DLL1 (purchased from Acro, …); assay: ELISA on plate-coated human DLL1 protein (1 µg/ml), HRP goat anti-human secondary, OD 450 nm [left panel]
# Protocol: (§1) The chimeric antibodies obtained in Example 6 were evaluated for their binding abilities to human DLL1 (purchased from Acro, DL1-H52H8) and DLL4 (purchased from Acro, DL4-H5227) proteins using the ELISA method. The ELISA detection method involved diluting DLL1 and DLL4 proteins with PBS to a final concentration of 1 μg/ml and coating them onto 384-well ELISA plates (purchased from Corning, 3700) at 4° C. overnight. The next day, the supernatant in the plate wells was discarded, and the wells were blocked with 80 μl of 3% milk (dissolved in PBS) for 2 hours, followed by washing three times with 80 μl of PBST (0.1% Tween20). […] After washing with 80 μl of PBST (0.1% Tween20) for five times, 25 μl of HRP-labeled goat anti-human secondary antibody (Jackson, 1:10000) was added to each well and incubated at room temperature for 1 hour, discard the supernatant, and the wells were then washed seven times with 80 μl of PBST (0.1% Tween20). After adding 25 μl of TMB chromogen solution for 10 minutes, the reaction was terminated with 2M HCl, and the absorbance value at 450 nm was measured with a Microplate reader (purchased from Biotek, Elx808). […] To assess the cross-reactivity of the antibodies with mouse and monkey DLL3, mouse DLL3-expressing plasmid pCMV3-mDLL3 (purchased from Beijing Yiqiao, MG58052-UT) and monkey DLL3-expressing plasmid pCMV3-rheDLL3 (purchased from Beijing Yiqiao, CG90919-UT) were used to construct overexpressing cell lines. The construction of overexpressing cells was as described in Examples 2-3. The binding abilities of the chimeric antibodies to these cells were determined by flow cytometry to assess the cross-reactivity of the antibodies with different species.
# [2] = target: T2, human DLL3, His tag (acrobiosystems, …); assay: BLI (Octet 96e), antibody on sensor, DLL3-His 100-3.13 nM in solution
# Protocol: To assess the affinity of antibodies for human DLL3 protein, this study employed the BLI method to detect the binding kinetics curves of immobilized antibodies with free DLL3. The method was conducted according to the instrument's user manual (supplier: Fortebio, equipment model: Octet 96e). Briefly, AMC sensors were equilibrated for 60 s with Loading Buffer/Sample dilution buffer (1×PBS, pH7.4, with 0.1% BSA and 0.02% Tween-20) to obtain Baseline 1. The antibodies to be detected were diluted with Loading Buffer to a concentration of 10 ug/ml and bound to the equilibrated sensors, after which the sensors were re-equilibrated with Loading Buffer to obtain Baseline 2. The antibody-loaded sensors were then placed in human DLL3, His tag (supplier: acrobiosystems, catalog number: DL3-H52H4) diluted with Sample Dilution Buffer to concentrations ranging from 100 to 3.13 nM for 90 s to obtain the antibody-protein binding curve. Then, the sensors combined with antigen were placed in the Sample Dilution Buffer again and dissociated for 180 s, and the dissociation curve was obtained. The k-on and k-off values of the antibody-protein binding were calculated based on the binding and dissociation curves, and the KD values were calculated, with the results shown in Table 4.
# [3] = target: T3, human DLL4 (purchased from Acro, DL4-H5227) (human, UniProt Q9NR61 27-524); assay: ELISA on plate-coated human DLL4 protein (1 µg/ml), HRP goat anti-human secondary, OD 450 nm [right panel]
# T3 construct: Bought; also called hDLL4
# Protocol: as §1
# T3 sequence (Q9NR61 27-524 limits assumed): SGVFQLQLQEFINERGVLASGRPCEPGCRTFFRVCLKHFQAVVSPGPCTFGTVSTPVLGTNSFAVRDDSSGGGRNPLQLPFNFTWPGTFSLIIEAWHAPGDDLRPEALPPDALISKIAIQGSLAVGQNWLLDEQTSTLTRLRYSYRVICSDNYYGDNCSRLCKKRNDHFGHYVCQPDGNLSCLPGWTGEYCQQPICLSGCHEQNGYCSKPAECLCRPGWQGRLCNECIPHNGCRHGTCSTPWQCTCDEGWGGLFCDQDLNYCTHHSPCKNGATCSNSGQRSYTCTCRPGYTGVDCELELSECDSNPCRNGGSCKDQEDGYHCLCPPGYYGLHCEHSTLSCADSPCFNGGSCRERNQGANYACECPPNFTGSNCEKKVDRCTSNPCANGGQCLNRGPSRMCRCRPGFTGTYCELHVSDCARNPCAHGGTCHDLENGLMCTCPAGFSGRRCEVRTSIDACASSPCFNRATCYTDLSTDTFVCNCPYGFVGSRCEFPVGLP
Binder,binding result [1],Kd [2] [nM],koff [2] [s⁻¹],kon [2] [M⁻¹ s⁻¹],binding result [3]
"ch13C2 (antibody, human IgG1, kappa, V domains shown, Chimeric: murine variable regions on human IgG1 heavy and kappa light constant regions; also called chimeric antibody 13C2) VH: EVKLVESGGGLVKPGGSLKLSCAASGFAFSSYDMSWVRQTPEKRLEWVATISSGGSYTYYPDSVKGRFTISRDNGRNTLYLQMSSLRSEDTALYYCASPLLGLRFAYWGQGTLVTVSA VL: QAVVTQESALTTSPGETVTLTCRSSTGAVTTINYANWVQEKPDHLFTGLIGGTNNRAPGVPARFSGSLIGDKAALTITGAQTEDEAIYFCALYYSNHWVFGGGTKLTVLR",no binding (tested: 20 µg/ml),5.37,0.0012,223000,no binding (tested: 20 µg/ml)
"ch10B1 (antibody, human IgG1, kappa, V domains shown, Chimeric: murine variable regions on human IgG1 heavy and kappa light constant regions; also called chimeric antibody 10B1) VH: DVKLVESGGGLVKPGGSLKLSCAASGFTFSNYTISWVRQTPEKRLEWVATFSSGGSYTYYSDSVKGRFTISRDNAKNTLYLQMSSLKSEDTAMYYCSRDRRSDGYYHLYAMDYWGQGTSVTVSS VL: DIQMTQTTSSLSASLGDRVTISCRASQDISHYLNWYQQKPDGTVKLLIYYTSRLHSGVPSRFSGSGSGTAYSLTISNLEQEDIATYFCQQGYTLPLTFGAGTKLELKR",no binding (tested: 20 µg/ml),0.204,0.000279,1.37e+06,–
"ch32E8 (antibody, human IgG1, kappa, V domains shown, Chimeric: murine variable regions on human IgG1 heavy and kappa light constant regions; also called chimeric antibody 32E8) VH: QVTLKESGPGILQPSQTLSLTCSFSGFSLSTSGMGVGWIRQPSGKGLEWLALIWWDDVKRYHPALKSRLTISKDTSSSQVFLKIASVDTADTATYYCARIAEVTGQVGLHYAMDYWGQGTSVTVSS VL: QTVLTQSPAIMSASLGERVTMTCTASSSVNSSSLHWYQQKPGSSPKLWIYTTSNLASGVPARFSGSGSGTSYSLTISSMEAEDAATYYCHQFHRSPFTFGSGTKLEIKR",no binding (tested: 20 µg/ml),0.09,0.000134,1.49e+06,no binding (tested: 20 µg/ml)
"ch6A2 (antibody, human IgG1, kappa, V domains shown, Chimeric: murine variable regions on human IgG1 heavy and kappa light constant regions; also called chimeric antibody 6A2) VH: EVQLQQSGPELVKPGASVKISCKASGYTFTDYNMNWVKQSQGKSLEWIGYIYPYNGGTGYNQKFKTKATLTVDNSSSTAYMEFRSLTSEDSAVYYCARSDPYYTMDYWGQGTSVTVSS VL: IIVMTQTPKFLLVSAGDRVTISCKASQSVNNDVAWYQQKPGQSPKLLIYFTSNRFTGVPDRFTGSGYGTDFTFTISSVQAEDLAVYFCQQDHNSPYTFGGGTKLEIKR",no binding (tested: 20 µg/ml),0.466,0.000684,1.47e+06,binds
"ch19C7 (antibody, human IgG1, kappa, V domains shown, Chimeric: murine variable regions on human IgG1 heavy and kappa light constant regions; also called chimeric antibody 19C7) VH: EVQLQQSGPELVRPGASVRMSCKASGYTFTYYVMHWVKQKPGLGLEWIGYINPYNDGTEYNEKFKGKATLTSDKSSSTAFMELSSLTSEDSAVYYCARWLLREYAMDYWGQGTSVTVSS VL: DIQMTQSPASLSASVGETVTITCRASDNIHNYLAWYQQKQGKSPQLLVYNAKTLADGVPSRFSGSGSGTQYSLKINSLQPEDFGSYYCQHFWSTPWTFGGGTKLEIKR",no binding (tested: 20 µg/ml),0.739,0.000962,1.3e+06,no binding (tested: 20 µg/ml)

# The next binders have a lower Kd [2] than those just listed; values first:
binding result [1],Kd [2] [nM],koff [2] [s⁻¹],kon [2] [M⁻¹ s⁻¹],binding result [3],Binder
no binding (tested: 20 µg/ml),0.0158,2.79e-05,1.76e+06,–,"ch23G2 (antibody, human IgG1, kappa, V domains shown, Chimeric: murine variable regions on human IgG1 heavy and kappa light constant regions; also called chimeric antibody 23G2) VH: QVQLQQSGPELVRPGVSVKISCKGSGYTFTDYAIHWVKQSRAKSPEWIGIVSTDSGKTSFNQKFKGKATMTVDKSSTTAYMELVRLTSEDSAIYYCARNPYYDYDGYAMDYWGQGTSVTVSS VL: DIQMTQSSSYLSVSLGGRVTIICKASDHINNWLAWYQQKPGNAPRLIISGATSLETGVPSRFSGSGSGKDYTLSITSLQTEDVATYYCQQYWSIPYTFGGGTKLEIKR"
no binding (tested: 20 µg/ml),0.0702,0.000121,1.72e+06,no binding (tested: 20 µg/ml),"ch15G2 (antibody, human IgG1, kappa, V domains shown, Chimeric: murine variable regions on human IgG1 heavy and kappa light constant regions; also called chimeric antibody 15G2) VH: EVQLQQSGPELEKPGASVRISCKASGYSFTDYNMHWVKQSNGKSLEWIGNIDPYYGGTNYNQKFEGKATLTVDKSSSTAYMQLKSLTSEDSAVYYCARGGNNYGDYWGQGTTLTVSS VL: DIQMTQSPASLAASVGETVTITCRASENIYYSLAWYQQKQGKSPQLLIFNANSLEDGVPSRFSGSGSGTQYSMKINSMQPEDTATYFCKQAYDVPWTFGGGTKLEIKR"
no binding (tested: 20 µg/ml),0.0521,6.31e-05,1.21e+06,no binding (tested: 20 µg/ml),"ch33F11 (antibody, human IgG1, kappa, V domains shown, Chimeric: murine variable regions on human IgG1 heavy and kappa light constant regions; also called chimeric antibody 33F11) VH: EVQLQQSGPELVKPGASVKISCKTSGYTFTENTMHWVKQSHGESLEWIGGINPRNGVTSYNQKFKGKATLTVDKSSSTAYMELRSLTSEDSAVYYCTNTYYRDYFDYWGQGTTLTVSS VL: NIVMTQSPKSMSMSVGERVTLSCKASENVGTYVSWYQQKPDQSPKLLIYGASNRYTGVPDRFTGSGSPTDFTLTISRMQAEDLAHYYCGQTYTYPLTFGAGTKLELKR"
no binding (tested: 20 µg/ml),0.0597,7.4e-05,1.24e+06,no binding (tested: 20 µg/ml),"ch1A5 (antibody, human IgG1, kappa, V domains shown, Chimeric: murine variable regions on human IgG1 heavy and kappa light constant regions, expressed in 293F cells; also called chimeric antibody 1A5) VH: EVQLQQSGPELVKPGASVKISCKTSGYTFTESAMHWVKQSHGKSLEWIGGINPNNGGISYSQKFKGKATLTVDKSSSTAYMELRSLTSEDSAVYYCGSSYYRDYFDYWGQGTTLTVSS VL: NIVMTQSPESMSMSVGERVTLSCKASENVGTYVSWYQQKPDQSPKLLIYGASNRYTGVPDRFTGSGSATHFTLTISSVQAEDLADYHCGQSYSYPLTFGAGTKLELKR"
no binding (tested: 20 µg/ml),0.0381,6.58e-05,1.73e+06,no binding (tested: 20 µg/ml),"ch26D9 (antibody, human IgG1, kappa, V domains shown, Chimeric: murine variable regions on human IgG1 heavy and kappa light constant regions; also called chimeric antibody 26D9) VH: EVQLQQSGPELVKPGASVKMSCKASGYTFTTYVMHWVKQKPGQGLEWIGYINPYNDDTNYNEKFKGKATLTSDKSSSTAYMELSSLTSEDSAVYYCARWGLTGTGDYYAMDYWGQGTSVTVSS VL: DIQMTQSPASLSASVGETVTITCRASGNVHNYLAWYQQKQGRSPQVLVYNAKTLADGVPSRFSGSGSGTQYSLKINSLLPEDFGSYYCQHFWTTPWTFGGGTTLEIKR"
